# B1: Ribonuclease HI wild type, P0A7Y4 (protein)
# chain: MLKQVEIFTDGSCLGNPGPGGYGAILRYRGREKTFSAGYTRTTNNRMELMAAIVALEALKEHCEVILSTDSQYVRQGITQWIHNWKKRGWKTADKKPVKNVDLWQRLDAALGQHQIKWEWVKGHAGHPENERCDELARAAAMNPTLEDTGYQVEV
# Settings: Escherichia coli (strain K12), Thermal, CD, NaCl 0.1 M, reversible: yes, whole UniProt chain shown
protein,measurement,setting,value
B1,Tm,"pH 3, glycine-HCl 10 mM",50.9 °C
same,unfolding enthalpy (van 't Hoff),"pH 3, glycine-HCl 10 mM",106 kcal/mol
same,Tm,"pH 5.5, Sodium acetate 10 mM",52.5 °C
same,unfolding enthalpy (van 't Hoff),"pH 5.5, Sodium acetate 10 mM",81.8 kcal/mol

# — FireProtDB (doi:10.1021/bi00025a018)
